The values that follow come from US20030162275A1, “Dog flavin-containing monooxygenase” (priority 2002, published 2003).

Positions count from the first letter of the chain named.

A short description of this data set: Enzyme activity assay (MPT S-oxidase activity of expressed FMO1 polypeptides in Sf-9 cell microsomes). The data set is classed as biochemical, dog. The conditions noted are these: 25 ug Sf-9 cell microsomal protein, 1 mM NADPH, 0.1 M tricine, 37° C., 10 minutes, HPLC detection of MPT sulfoxide at 240 nm. As for the experimental part:
Examples of particular variants of polypeptides of the invention include polypeptide of SEQ ID NO: 2 and SEQ ID NO: 4. […] This enzyme assay represents a single known method for the detemination of enzyme activity of various FMOs. Briefly, the methyl-p-tolyl (MPT) S-oxidase activity of the expressed variants of the polypeptide was assayed as a measure of FMO function. […] Incubations included 25 ug of Sf-9 cell (containing the polypeptide) microsomal protein 1 mM NADPH, and 0.1 M tricine. Incubations were started by the addition of MPTS and were conducted at 37° C. for at least 10 minutes. Following termination of the incubation, the supernatant was analyzed by high performance liquid chromatography and the MPT sulfoxide product was detected by absorbance at 240 nm and quantitated using an authentic standard of the sulfoxide metabolite.
An achiral assay method was conducted according to the data sheets provided by Gentest, with some modifications. Based on preliminary determinations of the linearity of metabolite formation with protein concentration and incubation time, incubation conditions were established using 50 μg (tissue microsomes) or 25 μg (Sf-9 cell microsomes) protein, 1 mM NADPH, and 0.1 M tricine in a total volume of 0.25 ml. Samples were incubated for 3 min at 37° C. followed by the addition of substrate (in 1% methanol) to start the reaction. Incubations were terminated after 10 minutes by the addition of 50 μl of acetonitrile, and samples were centrifuged to precipitate protein. The supernatant was analyzed by HPLC, using a 4.6 ×250 mm 5 micron C18 analytical column (Luna™C18(2), Phenomenex, Torrance Calif.) and a 1 ml/min gradient elution of 40:60/methanol:water to 60:40/methanol/water over 8 minutes, followed by substrate elution with 95% methanol. The MPT sulfoxide product was detected by absorbance at 240 nm and quantitated using the authentic standard. Imipramine N-oxidation was measured by substrate-dependent oxidation of NADPH at 340 nm Wyatt et al., 1998, using 25-50 μg of microsomal protein in a total volume of 750 μl.

B1: SEQ ID NO: 2: Amino acid sequence of a variant of dog wild-type FMO1 (protein, listed as Canis familiaris)
chain: MAKRVAIVGAGVSGLASIKCCLEEGLEPTCFERSDDLGGLWRFTEHVEGGRASLYKSVVSNSCKEMSCYSDFPFPEDYPNYVPNSQFLEYLKMYANRFSLLKCIRFKTKVCKVTKCPDFTVTGQWEVVTQHEGKQESAIFDAVMVCTGFLTNPHLPLDCFPGINTFKGQYFHSRQYKHPDIFKDKRVLVIGMGNSGTDIAVETSRLAKKVFLSTTGGAWVMSRVFDSGYPWDVVFMTRYQNMFRNSLSTPIVTWLMARKMNSWFNHANYGLVPEDRTQLREPVLNDELPGCIITGKVLIKPSIKEVKENSVVFNNTPKEEPIDIIVFATGYTFAFPFLDETVVKVENGQASLYKYIFPVHLPKPTLAVIGLIKPLGSMIPTGETQARWAVRVLKGINKLPPQSAMTEEVNARKENKPSGFGLCYCKALQSDYITYIDELLTNINAKPNLFSLPLTDPRLALTTFFGPCTPYQFRLTGPGKWKGARNAILTQWDRTFKVTKTRIVQESPTPFASLLKLLSLLALLMAIFQIFL
With B1, the “enzyme activity (MPT S-oxidase activity as a measure of FMO function)” value (from here on “enzyme activity”) was “inactive”.

B2: SEQ ID NO: 4: Amino acid sequence of another variant of dog wild-type FMO1 (protein, listed as Canis familiaris)
chain: B1 chain with G49E, C159Y, F182L, V233M, Y239F, S248P, L422S, P453L, T463I
For B2, the “enzyme activity” value is “inactive”.

B3: SEQ ID NO: 6: Amino acid sequence of dog wild-type FMO1, expressed using a baculovirus expression system in insect cells (protein, listed as Canis familiaris)
chain: B1 chain with G49E, V233M, Y239F, S248P, P453L, T463I, Q529L
B3: the “enzyme activity” value is given as “active”.
